Test results published in patent US20180155693A1, “Method of Differentiating Stem Cells” (BioTime, Inc., priority 2008, published 2018).

Legend:
[1] = tested on: ESI035, ESI049, ESI051 and HES-3; assay: Effect of early growth factors, Pdx-1 RT-PCR; format: cell-based, human; settings: day 18; early factors per Table 2; compared to cells only treated with Activin A; FIG. 5
Text: The effect of early differentiation factors was examined by differentiating cell lines ESI035, ESI049, ESI051 and HES-3 in 24-well plates in six varying cultures and harvesting them for analysis using immunohistochemistry and Quantitative RT-PCR analysis on day 18 and day 30 of differentiation. The culture medium (1×Glutamax, 1×NEAA, 1×13-mercaptoethanol in RPMI 1640 (RPMI)) was supplemented with other factors summarized in table 2 below. The medium was changed every 2-3 days.
As the effect of FGF2 as an early growth factor varied depending on the cell line used, no conclusion was derived with regard to the effect of an early dose of FGF2 on the expression of Pdx-1.
(§1) Total RNA from hESC at various stages of differentiation was isolated using the Qiagen RNeasy kit […] according to the manufacturer's instructions. RNA was quantified by UV absorption. 1 to 5 μg of RNA was DNase I treated and converted to cDNA using M-MuIV reverse transcriptase (New England Biolabs) using random hexamer primers according to the manufacturer's instructions. Quantitative PCR (RT-PCR) was performed according to the manufacturer's instructions using a BioRad iCycler with approximately 50 ng cDNA per reaction containing 250 nM of each primer and 1×SYBR green master mix (Bio-Rad) and analyzed by Bio-RAD thermocycler.

[2] = tested on: human embryonic stem cells; assay: Notch signaling inhibition, C-peptide positive cells by immunohistochemistry; format: cell-based; settings: added day 9-18 of differentiation; cells fixed at day 21; FIG. 7
Experimental: In order to increase the percentage of Pdx-1 and C-peptide producing cells, the cells from Example 1 were rinsed twice with PBS and then cultured in a culture medium (2% 8-27, 1×Glutamax, 1×NEAA, 1×13-mercaptoethanol in RPMI 1640 (RPMI)) comprising 50 ng/ml Activin A and 50 ng/ml BMP4 for 3 days. The medium was then changed to a medium comprising 50 ng/ml Activin A in RPMI and incubated for 3 days. The cells were then cultured in a medium comprising 3 μM RA, 50 ng/ml FGF2, 1 μM SANT-1 and 10 mM Nicotinamide in RPMI for 6 days with the medium changed every 2-3 days. Notch signaling in the cells was then inhibited by the addition of Gamma Secretase Inhibitor X (DAPT) from day 9-18 of differentiation.
Plate-based immunohistochemistry was performed using standard techniques. Cells were fixed in 4% PFA in PBS for 30 min, washed with PBS and incubated in blocking solution consisting of 10% FCS and 0.1% Triton X-100 in PBS for 1 hr. Cells were incubated overnight at 4 ° C. with the primary antibody diluted in blocking solution. Examples of primary antibodies and their dilutions used include: guinea pig anti-Pdx-1 (1:10,000), rabbit anti-C-peptide (Linea, 1:1,000), goat anti-Sox17 (R & D systems, 1:100), goat anti-FoxA2 (R & D systems 1:100) and mouse anti-Oct4 (Santacruz, 1:100). […]

[3] = cited from earlier work
[4] = tested on: mix of cell lines, ESI017 and ESI035; assay: Definitive endoderm time course, real-time PCR of Sox17 and FoxA2; format: cell-based, human
Experimental: The effects of Activin A with and without BMP4 on the expression of markers of definitive endoderm were examined. Activin A and BMP4 were added to a mix of cell lines, ESI017 and ESI035, of Example 1 after the cells had been washed twice with PBS. Four groups of cells were then cultured in four different conditions:
1) 50 ng/ml Activin A and 50 ng/ml BMP4 in a culture medium (2% B-27, 1×Glutamax, 1×NEAA, 1×J3-mercaptoethanol in RPMI 1640 (RPMI)) for 3 days followed by treatment with Activin A (50 ng/ml) in RPMI.
2) 50 ng/ml Activin A and 50 ng/ml BMP4 in RPMI for about 6 hours followed by treatment with Activin A (50 ng/ml) in RPMI.
3) 50 ng/ml Activin A in RPMI.
4) 10% KOSR in RPMI (negative control).
The cells were cultured continuously and a sample harvested daily. The medium was changed every 2-3 days. Real-time PCR was performed as described in Example 9.
as §1, with “1 to 5 μg of RNA was DNase I treated and converted to cDNA using M-MuIV reverse transcriptase (New England Biolabs) using random hexamer primers according to the manufacturer's instructions.” left out

[5] = tested on: ESI035, ESI049 and ESI051; assay: Screen of maturation growth factors, immunohistochemistry for C-peptide and Pdx-1; format: cell-based, human; settings: day 18
Text: The effect of maturation growth factors was examined by differentiating cell lines ESI035, ESI049 and ES1051 from Example 1 in 96-well plates in two varying cultures and harvesting them for analysis using immunohistochemistry on day 18 of differentiation. The culture medium (1×Glutamax, 1×NEAA, 1×f3-mercaptoethanol in RPMI 1640 (RPMI)) were supplemented with other factors summarized in Table 4 below. The notable changes to the differentiation protocol used here compared to that used in Example 4 were the shortened period of endoderm induction and the addition of nicotinamide from day 6 of differentiation. The medium was changed every 2-3 days. A list of growth factors (G.F) were tested according to the protocol described in Table 4. […] There were added at two time points. […] None of the added growth factors had any consistent effect on cell viability, C-peptide expression and Pdx-1 expression. Plate-based immunohistochemistry was performed using standard techniques. Cells were fixed in 4% PFA in PBS for 30 min, washed with PBS and incubated in blocking solution consisting of 10% FCS and 0.1% Triton X-100 in PBS for 1 hr. Cells were incubated overnight at 4 ° C. with the primary antibody diluted in blocking solution. […]

In the case of FGF2: member of the FGF family, the “Pdx-1 expression (RT-PCR)” value [1] is reported as “did not result in the same effect on Pdx-1 expression in all four cell lines”.

For `CC(C)C[C@H](NC(=O)[C@H](Cc1ccccc1)C[C@@H](O)[C@H](Cc1ccccc1)NC(=O)OC(C)(C)C)C(=O)N[C@@H](Cc1ccccc1)C(N)=O` [Gamma Secretase Inhibitor X], the “Concentration resulting in a significant number of C-peptide positive cells” value [2] was “over 10 μM”.

For C-peptide, the half-life [3] is listed as “about 30 minutes”.

B1: Activin A: protein of the TGF-superfamily (protein, UniProt P08476 311-426, looked up)
Inhibin beta A chain: GLECDGKVNICCKKQFFVSFKDIGWNDWIIAPSGYHANYCEGECPSHIAGTSGSSLSFHSTVINHYRMRGHSPFANLKSCCVPTKLRPMSMLYYDDGQNIIKKDIQNMIVEECGCS
modifications: Inhibin beta A chain
notes: protein of the TGF-superfamily
For B1, the “expression of Sox17 mRNA” value ([4]; 50 ng/ml each in RPMI, daily samples, FIG. 2A) was “weak expression of Sox17 until day 6”.

B2: BMP4: secreted polypeptide belonging to the BMP subgroup of the TGF-superfamily (protein, UniProt P12644 293-408, looked up)
Bone morphogenetic protein 4: SPKHHSQRARKKNKNCRRHSLYVDFSDVGWNDWIVAPPGYQAFYCHGDCPFPLADHLNSTNHAIVQTLVNSVNSSIPKACCVPTELSAISMLYLDEYDKVVLKNYQEMVVEGCGCR
With B2 the FoxA2 expression ([4]; addition of 50 ng/ml BMP4 to Activin A, up to day 10, FIG. 2B) was “did not appear to greatly affect FoxA2 expression”, the Pdx-1 positive cells ([5]; BMP4 treated plates compared to plates not BMP4 treated) was “more Pdx-1 positive cells” and the “frequency of C-peptide positive cells” value ([5]; initially cultured in medium comprising BMP4 vs Activin only) was “higher frequency of C-peptide positive cells”.
